Reference: the domain aggregation screens of Martell et al. (2025)

Experiment: soluble fraction after stress (log2 fold change); higher = more stays soluble; pooled small domains, quantitative proteomics
Details: stress: pH 4
How it was run: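 Values are log2 fold changes, and higher ones mean more of the domain stayed soluble. Each fold change reflects the soluble amount of a domain after acid stress and is taken as a measure of aggregation propensity. The stress was pH 4, applied to pooled custom libraries of small protein domains analysed by high-throughput quantitative proteomics.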

Sequence | soluble fraction (log2)
HMQLPFTPREHEITQLLSRGLSNRQIAEALSLSVRTVEGHIYQASTKLGISSRSELAVLVGQFA | -0.967
HMIPKDKQAWIALTYIYGVGRTTSMEILKKAQVGEEIRMKDLTEEEVTRIRNIIDKEYEVEGDLRRN | -0.762
HMGFVATRSRKFLPFSEARAITRGLGFSNQKDYKEWIKGNGNELLLPFNPWRTYGDSGWKGWKDFLGTDKA | 0.0101
HMRNISLSLRWHSGEWTADRLKSEVLALPGAMDMTVFEPQSQAYLRVEQGFDTKLLPAGIDVH | -0.958
HMRRTVIVTAAHAEIRERPDANAPLVFSAEQKVSLDYQETAPGGWVKVRHRDGQSGYVRTNQI | -0.159
HMSPSDLSAEAQKVYALLDGRELSFDTLVEESGFDTGSLLAILMRLEMKMLVEHGADQVYRRSG | -0.98
HMSDKFNALWIILNKLDKKEKVTARSLMEDLEVSERSVYRYITTLQVAGFPVDYDRAVNSYVFSDGYTLK | -2.16
HMSGTESMIEGRGEARTAIDGEGKVFFQGEYWTAQSDQFIPQGAKVRIKKVEGLNLIVEEIK | -0.796
HMTGGLLVHVAGAVGAPGVVSLPEGARVVDAIEAAGGAREDADTDQLNLARPVVDGEQVRVPVVGEVLE | 0.22
HMRPKVADIDYFDGKTFTIEDGSKHSITTSEAKKIYFYLVKNGYVDDESHVTDAYRSAATSGTLA | -0.0612
HMGASALTEREREVLRLLEGGGSDKRIARQLAISEHGVRYHLKSIYKKLGVHDRVSAIAAGRRLAS | ≥ 0.43
HMNQIFAPMPGLVLEVKLSEGDVVAEGESAIILEAMKMENIIKSPINGIVKKVHVKKGQTIEKNTLIISFK | -1.06
HMNVNSQQINDLEKSIQKFFDKDIKNYLNQNLSNDRMISKNEIDKIILLYYGSDKEPTLDEIKSIFN | -1.19
HMSDKLTLPVQINGVFRYTIEINPSMQKDEIIDLVKNEERTAKYKQDKEIKNVIVVPGKIVNIII | 0.22
HMYVSGVPAITSIERVSTPGRRVYAGYTTVPKVIGGMGVSILTTSRGVMTDAEARRQKVGGELLAKV | -0.29
HMKKNLELGLLPHEVKSILGEPDFIDTITDIDGIRYDMWSYTKLNVTKRLYFEDLFLVRMEE | -1.42
HMEQNTKAYEQVRTLTDLLNQYRHEYYNLSAPSVSDQEYDRLFDALAALEKQTGIVMSNSPTQTVG | -0.497
HMTLDSLEKLSVNDLEKMLVNMPVGYKTIFLLSVIDEYSHKEIGELLGITPETSRSQLFRAIKWIKTNIF | -0.706
HMRTAELEVWDDDELNDVVKLIQNNHNINTLKLRFQENVSFSGLSLIAAVLTKQSIILEIEY | -1.32
HMTISGSDLKAQREALNIPLERIAKETRIRLSILQDLEDEEYSELSSSAQTKGFLRLYADYLSSHKQRLG | 0.0379
HMGKPSSEELEALGRRTLEENVDVVEEILGGRDPKGKKIKYLEGLMMRALRGQETPEAVRRTLEELIFK | 0.00684
HMGVTVDEVHRNFESGMNVVHKKFGAGVVDSFDEGKIRINFDGVIKVFIADVLINSGMLESVSYTH | -0.922
HMATIADILAEHKDKEGPLLPVLHDVQKMFGHVSEEAMREIAQALNLTRAEVYGVVSFYHDFRKEVE | -1.19
HMLAKRYLVYGSGSLNSAYPDTKNIAYGIDSGKGFFLVGILTENEASKLKLKGYYVIEDFPLDFH | -0.921
HMQNSYSVEDLALKAGLSVDTIRYYQGLDLIAPPQKNGRRAIYGDEHLSRLDEIKKLALEGFSLRQISLLK | -1.02
HMSSLTQREYEIAELVADGLSNKAIAAELSISHTTAARHVANIMNKLGFNSRSQIAAWVADRAQG | -0.46

Sequence | soluble fraction (log2)
HMESDAIAAAIAALPARYREVLLLRYDNGFSYSEISKALDMTEAAVRKTVQRAKEALQRTLQIQEEDT | -0.219
HMHMSKKLADSISALRKKNGLSQEQLAEKIGISRQTVSNWERGIATPDVETLNLISKLFDEDLSVMING | 0.043
HMGKRGKEMQTAVLAILRASDRPYSAYELLESLKDIYPKIAPPTVYRALAALTQRGQIRRLESLNAFI | 0.22
HMAPKSALKIIEQISNNPRATMTDLANLTGYSRRWVAQTIKRLQEENIIKRIGSDKSGYWEIIG | 0.417
HMVSTSVTVTGDLNVRADSRADSDLVGALIPGQTVTRLAVLDNGWSKIRFDDGAGTVVEGYVLSEYLQADG | 0.131
HMQDREIHIHAGREVLEKELSRLSLHLKNTNLQEYAARFNVKTAEDILAGIGAGDIRPAHVVNLIADKL | -0.222
HMNMRVLSEQPNKKSYQDGNLRLKVFGASFKKSDILNEALNQARVEETGLQIPKLLEVKQIDGQWTIVTE | -0.393
HMPQLVGDVDGDGRVSVTDGEWIRASYGALPWYAGWRAAADLDGSRKIDVVDLELLRTKMGN | -0.772
HMKKDDLKQINGIGTTIEKKLNEIDIYNFYQISNLSKEDIETISEKIKTFPGKIERDNWVGQAQELL | -0.844
HMKIRIIKTASNAKAVQIVSYKNNKRIVLQHIGSAHTDETLNDLKILAEEWIKDYNHQLSIF | -0.671
HMARYSMLEEQLLQLINKHGTMSTPKLVEATGAPRSTVTYQLRKLLESGTIERTQPARSPKQSYRIKS | 0.0957
HMDTVSYSTLLRDIDAKEIKQLDLVPGRREVRVQYNDGRRVTVPVFANDNQILRAAESSGTPLTVV | 0.0175
HMSTPENLGGRNTAKARISWLENGVKQELESDFPAAEVVKLSSRFGGEVPELTVIRPSLEDIYLKMIG | -0.269
HMVGPAHIGLAVAKDQLPHWERHLTANGVEIEGRMRWDHGGESIYFRDPDAHLLELVTPGIWAN | -0.1
HMSRESNISTGRQLLEAQLPTWGYKKVEDIPSKQMKTALDAFNYKDVESLLQGLGEGSVALTTALRRLMP | -0.926
HMLARFSGIALNTWTQADVERTFGPPMLVERVARFDGDIWTYRFMDDYEPRMAHIHIDRAGTVRQLVF | -1.74
HMGGEGQIEIREREGIPAEAWVDGVMRGQTPLRVEHVSIGTRRVELRAEGRPPVAADVLVRPTVTALVELS | -0.192
HMPGKVSDAGATAKDNRLFLEAVFWRVRTGSPWRDLPPAFGHWNSQFRRFRRWAKAGVFESLFNA | 0.179
HMLLLASTPAEQTIIQLLAEGWRDGDQLQQRSHLSAADFSTALTMLEVNGSIKPLGANHWALTH | -0.185
HMVDFVNVVVPVKANYGGEAVVEFLDERLSEFGTEGIYRIELQGETMENPSPDYSQLKAKYHISEIVDRT | -0.375
HMAPLEPLTDRETEMLVRLANGASNKVMARESFVSENTIKFHLKNIYAKLGVTSRLQAIAAARNQGLI | -0.0342
HMFVTGTTIKKLREEKRMTQGELAQMIGVSDKAVSKWETGRGLPDISLLEPLSRALGISVAELFAGQH | -0.0399
HMGQVAKPPLKELGADPVTGKPMVLKDGRFGPYVTDGEYNASLRKDDDIETIGVERAAELLQIRREKGP | -0.0291
HMTKKEFLDILTESLAGNVPASEIEENIRYYKDYIENGEESEEKALEQLGDPHLIARTIIDSFIA | -1.46
HMSAPQKWDGSLQDFIRFKQEAKTLMDNIPNKRLALNAILETISDGKMRKRLAKYDGPESALKSLELEFGN | 0.0286
HMSVPSLVGKTDSEAQSAIKSAGLKVGTVTYQYSDETEKGYVVSQSPYSGNKVNAGSTVNIVVSKGK | 0.155

Sequence | soluble fraction (log2)
HMVREVGYNAFLAMLDSGAVKEVARDESEGQITFLATDEKGKERVYKTGIWPDDTLTERLNTAGVEFA | -0.941
HMNSLGYSDFVVDVQNERVASVVIEGLIINGERRDGTKFRTVLPTIGDQRLMDDLINHNVKVLARE | 0.226
HMDDDIKNALDVLPEQYRMTVYYADVEGLAYKEIGAIMNTPIGTVMSRIHRGRSQLRVLLAAVAADR | -0.0958
HMVRSKLEIVPVPEDAVVKIAGLKRLTYQAYQNEDVPYMVYKNGYEAQSGTVFMDTDKTLTVTLEESP | 0.151
HMRNSFTVENTGERLDVFLTGQMPEFSRSHIQKLIASGQAWVNGVNRKGNFKLKPHDVVELEVPEPE | 0.169
HMKITIDSVERDETFRLIWGTGWKPKNKIQELAAIQAKKNGLGRMNEVAGLAAWRGIWQQVAEQVAQEVL | -0.843
HMSGSGYAYVDKYGYSHVVKDYDTAKNYASDGNVYNYSGSHKGGYAYDADNYRVPLDLPGSKPYG | -0.183
HMNVNTHKTLILNSTFQPLSLATPQRALALLFSKKINVLKESDIKLRSVGQSVAIPKVAVLTYFVKA | 0.132
HMSVERIEPPLPLIDTLLALRDALERPLSREENAFLSRRFAGGATRAQIDALAAQFRGAAAAESKV | -0.324
HMSKKMLASIFDTISGIGKKRLKKIWDNYTSLNELKDDSLENIYAKTQIPINLITKIKEKLE | ≥ 0.43
HMGSLKEKIVLLEKLYQQNPSEEIKLLLINTYQLNHQYIQARKLFFTLTPEQKEKLPLASEFLIFL | -0.725
HMADRLITLSEVASLLRVSRHTVQAWISPSSPNHRPEFAIMARHAGRRTVFIEAEVTAWLDQRRG | -0.7
HMVMNYKKIGKKIADRRILLGITQEELAEKVDSSANYISNIETGIKSGSLIFYIKVANELKLSLDFLFSDE | -0.363
HMSEEKLVFSIPDDIETMRIDKAIALETHLSRAQIAELFKENKILLNSKNSKRSEKVKPGDKISLEFIPKI | -0.0612
HMQEAGLITQRIREMREKENWTQEYMAEQLGMSENGYAKIERGESNLSLKRLQQIADIFEVESAELLK | -0.566
HMPTSPKANFLKELPQEFTRKQAVTIGDKLNIKERTVDNYLAKLEQAGYLVKPKAGYYQKIKS | 0.22
HMQKADFDYGDYVDLGLAMGRQSRQLREAVGIKLGIGYANSKRFYQRLQTFGISLAELKQAVEEAENDQQN | 0.149
HMVLQHHTATKALSYHTSASASAAVKGSFARGDSVQVVQGGSQTADGAKWHKVKVGSSYYYAAAEHLTP | -0.616
HMSEPFDMAVPLTSGGRRLDQVLAELLPQHSRNRLQGWIRDGLLTLDGVTVTEPKRKLAGGEQLALLLP | -0.238
HMPDPHSEARNIVLNQLNFMPRSRKELETALAKRNIEADVAKIVLDRFEEIGMVDDAAYAEL | -1.2
HMSSNLTVFTRNNAIIVNSDVVRKLNVFAVDGRLVRSVDLSVGENVINNISRGMYLIDKQKVVV | ≥ 0.43
HMRKRLLQLVHIGKSQLGMDDETYRSLLSQQFYQNSAKNISYSELVKLVKILQQKGAKIRLPH | 0.262
HMGELTNALATLSERERDVARLVAQGLDNRQIAAQLFLSEGTVRNRISDILDKLALTNRTQLAIAWLHAE | -0.615
HMTPDVAEFRERLRQILPGEQIEVRTANDGIVLSGTVSSIARLDAALQLAERYAPSRVSNLMSVG | 0.399
